Test results: the nanobody polyreactivity screen of Harvey et al. (2022)

Assay: yeast display, Sf9 membrane polyspecificity reagent, FACS + sequencing; frameworks hold sequencing errors
Outline: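 A nanobody's polyreactivity label depends on the gate it was sorted from. Yeast display cells were stained with 10% biotinylated, detergent-solubilized Sf9 membrane reagent for 1 hour at 4 °C, enriched on streptavidin microbeads and sorted by FACS. The low and high (top ~1%) gates were set on anti-HA fluorescence for expression and streptavidin fluorescence for reagent binding.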

| Sequence | polyreactivity (PSR sort gate) |
| --- | --- |
| QVQLVESGGGLVQAGGSLRLSCAASGLTFGAYAMGWYRQAPGKEREFVAAITYSGGSTNYADSVKGRFTISRDNAKNTVYLQMNSLKPEDTAVYFCNAGYYSPWAFYPYAYWGQGTQVTVSS | high polyreactivity |
| QVQLVESGGGLVQAGGSLRLSCAASGLTFGAYAMGWYRQAPGKERELVAAISDSGGTTYYADSVKGRFTISRDNAKNTVYLQMNSLKPEDTAVYYCAAVKSDVRYRYDYYWGQGTQVTVSS | low polyreactivity |
| QVQLVESGGGLVQAGGSLRLSCAASGLTFGGNAMGWYRPAPGKERELVAAISWSDHTTDYADSVKGRFTISRDKSKNSVYFQMKRLKPEDTAVYYCAARLPFEHVDYWGQGTQVTVSS | low polyreactivity |
| QVQLVESGGGLVQAGGSLRLSCAASGLTFGGNAMGWYRQAPGKERELVAAISWNGGRTYYADSVKGRFTISRDNAKNTVDLQMNSLKPEDTAVYYCNTPVFSKSSRKYYYWGQGTQVTVSS | high polyreactivity |
| QVQLVESGGGLVQAGGSLRLSCAASGLTFGGNARGWYRQAPGNERELVAPISSRGGSTYYADSVKGRFTISRDNAKNTVYLQMNSLKPEDTAVYYCAAGNRYGVRQLYQIVTRYYWGQGTQVTVSS | high polyreactivity |
| QVQLVESGGGLVQAGGSLRLSCAASGLTFGNNAMGWYRQAPGKERELVAAISSDGTTYYADSVKGRFTISRDNAKNTVYLQMNSLKPEDTAVYYCNAAAEISSFDYDYWGQGTQVTVSS | low polyreactivity |
| QVQLVESGGGLVQAGGSLRLSCAASGLTFGPYAMGWYRQAPGKERELVAAITSGGNTNYADSVKGRYTISRDNAKNTVYLQMNSLKPEETAVYYCATSYYLAYRSITPYDYWGQGTQVTVSS | low polyreactivity |
| QVQLVESGGGLVQAGGSLRLSCAASGLTFGRYAMGWYIQATGKERQLVASISQRGGSTYYADSVKGRFTISRDNAKNTVYLQMNSLKPEDTAVYYCNARVRDIYRYSMDSWGQGTQVTVSS | low polyreactivity |
| QVQLVESGGGLVQAGGSLRLSCAASGLTFGSNAMGWYRQAPGKERELVAAITSSGGRTYYADSVKGRFTISRDNAKNTVYLQMNSLKPEVTAVYYCAAVYQILLYFPGRYDYWGQGTQVTVSS | low polyreactivity |
| QVQLVESGGGLVQAGGSLRLSCAASGLTFGTNAMGWYRQAPGKERELVAAISTSSGSTYYADSVKGRFTISRDNAKNTVYLQMNSLKPEDTAVYYCAAVTVTKLSYYRYYYWGQGTQVTVSS | low polyreactivity |
| QVQLVESGGGLVQAGGSLRLSCAASGLTFGVYAMGWYRPAPGKERELVAAITATGGSTYYADSVKGRFTISRDNAKNTVYLQMNSLKPEDTAVYYCAKPDFYRMGYWGQGTQVTVSS | low polyreactivity |
| QVQLVESGGGLVQAGGSLRLSCAASGLTFGWYAMGWYRQAPRKERELVAAISWSGSTTYYADSVKGRFTISRDNAKNTVYLQMNSLKPEDTAVYYCAADVSTRPYGYYYWGQGTQVTVSS | high polyreactivity |
| QVQLVESGGGLVQAGGSLRLSCAASGLTFHPYAMGWYRQAPGKERELVAAISSRGTSTYYADSVKGRFTISRDNAKNTVYLQMNSLKPEDTAVYYCAARYRLYYYFRFDWGQGTQVTVSS | high polyreactivity |
| QVQLVESGGGLVQAGGSLRLSCAASGLTFHSYAMGWYRQAPGKERELVAAINYSGGRTDYADSVKGRFTISRDNALKSVYLQMNSLQPADTAVYFCAAQRASAYYCGQGTQVTVSS | high polyreactivity |
| QVQLVESGGGLVQAGGSLRLSCAASGLTFIEYAMGWYRQAPGKERELVAAISSGGRTYYADSVKGRFTISRDNPKNTVYLQMNSLKPEDTAVYYCNDRGYRRWYNYWGQGTQVTVSS | high polyreactivity |
| QVQLVESGGGLVQAGGSLRLSCAASGLTFIINDMGWYRQAPGKERELVAGITNGGSTYADSVKGRFTISRDNAKNTVYLQMNCLKPEDTAVYYCAVPWYDFARSIQVDEYDYWGQGTQVTVSS | low polyreactivity |

| Sequence | polyreactivity (PSR sort gate) |
| --- | --- |
| QVQLVESGGGLVQAGGSLRLSCAASGLTFIKYAMGWYRQAPGKERELVADITSSGGTTYYADSVKGRFTISRDNAKNTVYLQMNSLKPEDTAVYYCAAGTRTGMNWGQGTQVTVSS | high polyreactivity |
| QVQLVESGGGLVQAGGSLRLSCAASGLTFIKYTMGWSRQAPGKERELVATIRASTGSTYYADSVKGRFTISRDNAKNTVYLQMNSLKPEDTAVYYCATRSYPPYYGLYGGRAYNYWGQGTQVTVSS | high polyreactivity |
| QVQLVESGGGLVQAGGSLRLSCAASGLTFIPNAMGWYRQAPGKERELVAAISGTGGSTYYADSVKGRFTISRDNAKNTVYLQMNSLKPEDTAVYYCAARRRYKSGYWGQGTQVTVSS | high polyreactivity |
| QVQLVESGGGLVQAGGSLRLSCAASGLTFISYDMGWYRQAPGKERELVAAISSGGVLPNYADSVKGRFTISRDNAKNTVYLQMNSLKPEDTAVYYCNADTPTWPLDYWGQGTQVTVSS | low polyreactivity |
| QVQLVESGGGLVQAGGSLRLSCAASGLTFKDNAMGWYRQAPGKERELVAAISKGGGSTFYADSVKGRFTISRDNAKNTVYLQMNSLKPEDTAVYYCNADVGYRGGEEDYWGQGTQVTVSS | low polyreactivity |
| QVQLVESGGGLVQAGGSLRLSCAASGLTFKKYAMGWYRQAPGKERELVAAISRGGSTNYADSVKGRFTISRDNAKNTVYLQMNSLKPDDTAVYYCAAEGYWHVYADYYLEDYYWGQGTQVTVSS | high polyreactivity |
| QVQLVESGGGLVQAGGSLRLSCAASGLTFKRYAMGWYRQAPGKERELVASITGNGGSTYYADSVKGRFTISRDNAKNTFYLQMNSLKPEDTAVYYCNVGYRGWSVNSWGQGTQVTVSS | high polyreactivity |
| QVQLVESGGGLVQAGGSLRLSCAASGLTFKRYGMGWYIQAPGKERELVAAINWRGTSTYYADSVKGRFTISRDNAKNTVYLQMNSLKPEDTAVYYCAAVGPFYGPGEYWGQGTQVTVSS | high polyreactivity |
| QVQLVESGGGLVQAGGSLRLSCAASGLTFKYYAMGWYRQAPGKERELVAAISASGGRTSYADSVKGRFTISRDNAKNTFYLQMNSLKPEDTAVYYCNADITSSGPKSDYWGQGTQVTVSS | high polyreactivity |
| QVQLVESGGGLVQAGGSLRLSCAASGLTFKYYAMGWYRQAPGKERELVAAITSTGGRTYYADSVKGRFTISRDNAKNTVYLQMNSLKPEDTAFYYCAAYYVGSSKYDSWGQGTQVTVSS | low polyreactivity |
| QVQLVESGGGLVQAGGSLRLSCAASGLTFKYYAMGWYRQAPGKERELVAIISFGGGSTYYADSVKGRFTISRDNAKNTVYLQMNSLKPEDTAVYYCNARLLFKYGYWGQGTQVTVSS | high polyreactivity |
| QVQLVESGGGLVQAGGSLRLSCAASGLTFLFYAMGWYRQAPGKERELVASIRWSDGRTYYADSVKGRFTISRDNAKNTVYLQMNSLKPEDTAVYYCAVVPAYVYLNREYYWGQGTQVTVSS | high polyreactivity |
| QVQLVESGGGLVQAGGSLRLSCAASGLTFLNNAMGWYRQAPVKERELVAAISVGGSTNYADSVKGRFTISRDNAKNTVYLQMNSLKPEDTAVYYCAAVYTSASYGSWGQGTQVTVSS | low polyreactivity |
| QVQLVESGGGLVQAGGSLRLSCAASGLTFLYYAMGWYRQAPGKERELVASISRGSNTNYADSVKGRFTISRDNAKNTVYLQMNSLKPEDTAVYYCAVDRRPYSGHGYDYWGQGTQVTVSS | high polyreactivity |
| QVQLVESGGGLVQAGGSLRLSCAASGLTFNRYAMGCYRQAPGKEREFVAAISVRSGSTYYADSVKGRFTISRDNAKNTVYLQMNSLKPEDTAVYYCAAKIRKDYSIQGYDYWGQGTQVTVSS | high polyreactivity |
| QVQLVESGGGLVQAGGSLRLSCAASGLTFNYYAMGWSRPAPGKERELVAAISSDGRTDYADSVKGRFTISRDNAKNTVYLQMNSLKPEDTAVSYCAASWYRWGKSWRQYDYWGQGTQVTVSL | low polyreactivity |
